Laboratory results taken from the supplement of paper PMC6757056.
± gives the standard deviation of the averaged measurements.

B1: library; a variant is named by its letters at N, in order (parent)
chain: GCUGUCACCGGUGUAUUACCCUAGUGGUCGACCGGUCUGAUGAGUCUNNNNNNAGACGAAACAGC

Legend:
[1] = variants of: B1; experiment: FACS-Seq fitted mean relative fluorescence mCherry/BFP without ligand (log10 relative fluorescence); ligand: hypoxanthine (xanthine aptamer); higher = higher reporter protein expression; details: HEK293T, ligand present: no
Summary of the method: (§1)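 Fluorescence is reported as a normalized fitted mean of sorted-bin read counts. Lentivirally transduced HEK293T libraries (mCherry ribozyme-switch reporter, EF1α-BFP marker) were enriched, treated with or without ligand for 48 h, and sorted into 6 mCherry/BFP bins for MiSeq sequencing of PCR-amplified genomic DNA. The normal fit was on log10(mCherry/BFP), scaled to five spiked-in control ribozymes.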

[2] = variants of: B1; experiment: normalized RNA/DNA level with ligand (relative to sTRSVctl = 100) (log10 (% of sTRSVctl)); ligand: hypoxanthine (xanthine aptamer); higher = less ribozyme self-cleavage, higher mRNA level; details: ligand concentration (+) RNA-Seq: 5 mM, HEK293T, reporter: mCherry (pCS4076), ligand present: yes
Summary of the method: (§2)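 Library plasmids encoding reporter-linked ribozyme switches (mCherry, or eGFP for some folinic acid experiments) were transfected into HEK293T at 4 µg per 6-well well. Ligand, when used, was added 1 h before transfection. Total RNA was extracted with EDTA 72 h later, then reverse-transcribed, amplified, barcoded and sequenced. RNA level was RNA reads over DNA reads, divided by a spiked-in non-cleaving control (or the top 25 sequences), ×100, log10; only sequences with ≥100 DNA reads were kept.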

[3] = variants of: B1; experiment: normalized RNA/DNA level without ligand (relative to sTRSVctl = 100) (log10 (% of sTRSVctl)); ligand: hypoxanthine (xanthine aptamer); higher = less ribozyme self-cleavage, higher mRNA level; details: HEK293T, reporter: mCherry (pCS4076), ligand present: no
Summary of the method: as §2

[4] = variants of: B1; experiment: FACS-Seq fitted mean relative fluorescence mCherry/BFP with ligand (log10 relative fluorescence); ligand: hypoxanthine (xanthine aptamer); ligand concentration (+) FACS-Seq: 5 mM; higher = higher reporter protein expression; details: HEK293T, ligand present: yes
Summary of the method: as §1

## GAUGGA
[1]
  FACS-Seq fitted mean (log10): 0.4617 ± 0.0039
[2]
  normalized RNA/DNA level with ligand (log10): 1.913 ± 0.0011
[3]
  normalized RNA/DNA level without ligand (log10): 1.67 ± 0.036
[4]
  FACS-Seq fitted mean (log10): 0.698 ± 0.029

## GAUGGG
[1]
  FACS-Seq fitted mean (log10): -0.0971 ± 0.21
[2]
  normalized RNA/DNA level with ligand (log10): 1.81 ± 0.025
[3]
  normalized RNA/DNA level without ligand (log10): 1.3 ± 0.053
[4]
  FACS-Seq fitted mean (log10): 0.3779 ± 0.0029

## GCACAA
[1]
  FACS-Seq fitted mean (log10): 0.663 ± 0.02
[2]
  normalized RNA/DNA level with ligand (log10): 1.86 ± 0.046
[3]
  normalized RNA/DNA level without ligand (log10): 1.75 ± 0.019
[4]
  FACS-Seq fitted mean (log10): 0.678 ± 0.026

## GCACAG
[1]
  FACS-Seq fitted mean (log10): 0.227 ± 0.034
[2]
  normalized RNA/DNA level with ligand (log10): 1.863 ± 0.00078
[3]
  normalized RNA/DNA level without ligand (log10): 1.45 ± 0.021
[4]
  FACS-Seq fitted mean (log10): 0.0639 ± 0.076

## GCAUAA
[1]
  FACS-Seq fitted mean (log10): 0.705 ± 0.011
[2]
  normalized RNA/DNA level with ligand (log10): 1.92 ± 0.03
[3]
  normalized RNA/DNA level without ligand (log10): 1.801 ± 0.015
[4]
  FACS-Seq fitted mean (log10): 0.6261 ± 0.0017

## GCAUAU
[1]
  FACS-Seq fitted mean (log10): 0.326 ± 0.025
[2]
  normalized RNA/DNA level with ligand (log10): 1.93 ± 0.031
[3]
  normalized RNA/DNA level without ligand (log10): 1.736 ± 0.0026
[4]
  FACS-Seq fitted mean (log10): 0.329 ± 0.014

## AAUGCG
[1]
  FACS-Seq fitted mean (log10): -0.0193 ± 0.038
[2]
  normalized RNA/DNA level with ligand (log10): 1.85 ± 0.03
[3]
  normalized RNA/DNA level without ligand (log10): 1.42 ± 0.089
[4]
  FACS-Seq fitted mean (log10): 0.462 ± 0.044

## AAUGCA
[1]
  FACS-Seq fitted mean (log10): 0.304 ± 0.078
[2]
  normalized RNA/DNA level with ligand (log10): 1.9039 ± 0.0013
[3]
  normalized RNA/DNA level without ligand (log10): 1.772 ± 0.012
[4]
  FACS-Seq fitted mean (log10): 0.563 ± 0.029

## GCAAUG
[1]
  FACS-Seq fitted mean (log10): 0.028 ± 0.018
[2]
  normalized RNA/DNA level with ligand (log10): 1.87 ± 0.05
[3]
  normalized RNA/DNA level without ligand (log10): 1.436 ± 0.0057
[4]
  FACS-Seq fitted mean (log10): 0.443 ± 0.04

## GCAAUC
[1]
  FACS-Seq fitted mean (log10): 0.498 ± 0.03
[2]
  normalized RNA/DNA level with ligand (log10): 1.98 ± 0.058
[3]
  normalized RNA/DNA level without ligand (log10): 1.77 ± 0.0096
[4]
  FACS-Seq fitted mean (log10): 0.531 ± 0.046

## GCAAUA
[1]
  FACS-Seq fitted mean (log10): 0.126 ± 0.036
[2]
  normalized RNA/DNA level with ligand (log10): 1.941 ± 0.016
[3]
  normalized RNA/DNA level without ligand (log10): 1.87 ± 0.026
[4]
  FACS-Seq fitted mean (log10): 0.466 ± 0.071

## AAUGUG
[1]
  FACS-Seq fitted mean (log10): 0.203 ± 0.0069
[2]
  normalized RNA/DNA level with ligand (log10): 1.82 ± 0.026
[3]
  normalized RNA/DNA level without ligand (log10): 1.39 ± 0.05
[4]
  FACS-Seq fitted mean (log10): 0.573 ± 0.036

## AAUGUU
[1]
  FACS-Seq fitted mean (log10): 0.678 ± 0.033
[2]
  normalized RNA/DNA level with ligand (log10): 1.9 ± 0.072
[3]
  normalized RNA/DNA level without ligand (log10): 1.85 ± 0.038
[4]
  FACS-Seq fitted mean (log10): 0.605 ± 0.077

## AAUGUA
[1]
  FACS-Seq fitted mean (log10): 0.284 ± 0.0037
[2]
  normalized RNA/DNA level with ligand (log10): 1.9 ± 0.088
[3]
  normalized RNA/DNA level without ligand (log10): 1.79 ± 0.047
[4]
  FACS-Seq fitted mean (log10): 0.204 ± 0.0096

## AAUUAG
[1]
  FACS-Seq fitted mean (log10): 0.404 ± 0.012
[2]
  normalized RNA/DNA level with ligand (log10): 1.86 ± 0.037
[3]
  normalized RNA/DNA level without ligand (log10): 1.52 ± 0.032
[4]
  FACS-Seq fitted mean (log10): 0.681 ± 0.03

## AAUUAC
[1]
  FACS-Seq fitted mean (log10): 0.511 ± 0.13
[2]
  normalized RNA/DNA level with ligand (log10): 1.96 ± 0.04
[3]
  normalized RNA/DNA level without ligand (log10): 1.823 ± 0.016
[4]
  FACS-Seq fitted mean (log10): 0.516 ± 0.022

## AAUUAA
[1]
  FACS-Seq fitted mean (log10): 0.435 ± 0.032
[2]
  normalized RNA/DNA level with ligand (log10): 1.893 ± 0.0034
[3]
  normalized RNA/DNA level without ligand (log10): 1.764 ± 0.0032
[4]
  FACS-Seq fitted mean (log10): 0.276 ± 0.14

## UCAUAC
[1]
  FACS-Seq fitted mean (log10): 0.306 ± 0.022
[2]
  normalized RNA/DNA level with ligand (log10): 1.98 ± 0.041
[3]
  normalized RNA/DNA level without ligand (log10): 1.89 ± 0.056
[4]
  FACS-Seq fitted mean (log10): 0.474 ± 0.0069

## UCAUAG
[1]
  FACS-Seq fitted mean (log10): 0.588 ± 0.1
[2]
  normalized RNA/DNA level with ligand (log10): 1.89 ± 0.033
[3]
  normalized RNA/DNA level without ligand (log10): 1.69 ± 0.022
[4]
  FACS-Seq fitted mean (log10): 0.567 ± 0.11

## UCAUAA
[1]
  FACS-Seq fitted mean (log10): 0.7537 ± 0.0032
[2]
  normalized RNA/DNA level with ligand (log10): 1.93 ± 0.029
[3]
  normalized RNA/DNA level without ligand (log10): 1.75 ± 0.025
[4]
  FACS-Seq fitted mean (log10): 0.622 ± 0.0065

## ACAUCG
[1]
  FACS-Seq fitted mean (log10): 0.306 ± 0.048
[2]
  normalized RNA/DNA level with ligand (log10): 1.932 ± 0.019
[3]
  normalized RNA/DNA level without ligand (log10): 1.57 ± 0.016
[4]
  FACS-Seq fitted mean (log10): 0.584 ± 0.052

## CCACUG
[1]
  FACS-Seq fitted mean (log10): 0.339 ± 0.054
[2]
  normalized RNA/DNA level with ligand (log10): 1.917 ± 0.012
[3]
  normalized RNA/DNA level without ligand (log10): 1.8 ± 0.1
[4]
  FACS-Seq fitted mean (log10): 0.526 ± 0.076

## UCACUG
[1]
  FACS-Seq fitted mean (log10): 0.184 ± 0.08
[2]
  normalized RNA/DNA level with ligand (log10): 1.89 ± 0.041
[3]
  normalized RNA/DNA level without ligand (log10): 1.55 ± 0.012
[4]
  FACS-Seq fitted mean (log10): 0.463 ± 0.081

## ACAGUC
[1]
  FACS-Seq fitted mean (log10): 0.656 ± 0.012
[2]
  normalized RNA/DNA level with ligand (log10): 1.924 ± 0.0022
[3]
  normalized RNA/DNA level without ligand (log10): 1.951 ± 0.0032
[4]
  FACS-Seq fitted mean (log10): 0.657 ± 0.04

## ACAGUU
[1]
  FACS-Seq fitted mean (log10): -0.0389 ± 0.048
[2]
  normalized RNA/DNA level with ligand (log10): 1.914 ± 0.0073
[3]
  normalized RNA/DNA level without ligand (log10): 1.73 ± 0.021
[4]
  FACS-Seq fitted mean (log10): 0.0577 ± 0.038

## CCAAUG
[1]
  FACS-Seq fitted mean (log10): 0.585 ± 0.11
[2]
  normalized RNA/DNA level with ligand (log10): 1.929 ± 0.011
[3]
  normalized RNA/DNA level without ligand (log10): 1.61 ± 0.046
[4]
  FACS-Seq fitted mean (log10): 0.683 ± 0.023

## GCAGGG
[1]
  FACS-Seq fitted mean (log10): -0.0762 ± 0.0096
[2]
  normalized RNA/DNA level with ligand (log10): 1.88 ± 0.028
[3]
  normalized RNA/DNA level without ligand (log10): 1.506 ± 0.0099
[4]
  FACS-Seq fitted mean (log10): 0.479 ± 0.017

## GCAGGA
[1]
  FACS-Seq fitted mean (log10): 0.661 ± 0.024
[2]
  normalized RNA/DNA level with ligand (log10): 1.9091 ± 0.0012
[3]
  normalized RNA/DNA level without ligand (log10): 1.72 ± 0.035
[4]
  FACS-Seq fitted mean (log10): 0.705 ± 0.051

## GCAGCA
[1]
  FACS-Seq fitted mean (log10): 0.363 ± 0.034
[2]
  normalized RNA/DNA level with ligand (log10): 1.983 ± 0.0069
[3]
  normalized RNA/DNA level without ligand (log10): 1.827 ± 0.016
[4]
  FACS-Seq fitted mean (log10): 0.663 ± 0.015

## GCAGCC
[1]
  FACS-Seq fitted mean (log10): 0.465 ± 0.1
[2]
  normalized RNA/DNA level with ligand (log10): 1.99 ± 0.044
[3]
  normalized RNA/DNA level without ligand (log10): 1.78 ± 0.023
[4]
  FACS-Seq fitted mean (log10): 0.532 ± 0.069

## CAUGCG
[1]
  FACS-Seq fitted mean (log10): 0.687 ± 0.064
[2]
  normalized RNA/DNA level with ligand (log10): 1.92 ± 0.049
[3]
  normalized RNA/DNA level without ligand (log10): 1.91 ± 0.082
[4]
  FACS-Seq fitted mean (log10): 0.645 ± 0.005

## CAUGCU
[1]
  FACS-Seq fitted mean (log10): 0.614 ± 0.036
[2]
  normalized RNA/DNA level with ligand (log10): 1.97 ± 0.039
[3]
  normalized RNA/DNA level without ligand (log10): 1.904 ± 0.013
[4]
  FACS-Seq fitted mean (log10): 0.529 ± 0.073

## CCAAAC
[1]
  FACS-Seq fitted mean (log10): 0.763 ± 0.049
[2]
  normalized RNA/DNA level with ligand (log10): 1.93 ± 0.038
[3]
  normalized RNA/DNA level without ligand (log10): 1.875 ± 0.012
[4]
  FACS-Seq fitted mean (log10): 0.528 ± 0.086

## CCAAAU
[1]
  FACS-Seq fitted mean (log10): 0.00231 ± 0.0079
[2]
  normalized RNA/DNA level with ligand (log10): 1.93 ± 0.0062
[3]
  normalized RNA/DNA level without ligand (log10): 1.83 ± 0.058
[4]
  FACS-Seq fitted mean (log10): 0.404 ± 0.042

## GCAAAC
[1]
  FACS-Seq fitted mean (log10): 0.411 ± 0.03
[2]
  normalized RNA/DNA level with ligand (log10): 1.91 ± 0.023
[3]
  normalized RNA/DNA level without ligand (log10): 1.6 ± 0.036
[4]
  FACS-Seq fitted mean (log10): 0.455 ± 0.055

## GCAAAU
[1]
  FACS-Seq fitted mean (log10): -0.00409 ± 0.019
[2]
  normalized RNA/DNA level with ligand (log10): 1.932 ± 0.0088
[3]
  normalized RNA/DNA level without ligand (log10): 1.75 ± 0.043
[4]
  FACS-Seq fitted mean (log10): 0.371 ± 0.013
